Experimental data taken from patent US20210163540, “POLYPEPTIDES SELF-ASSEMBLING INTO NANOPARTICLES” (ETH ZÜRICH, published 2021).
Positions count from the first letter of the chain named.

Tests used:
[1] = biological target: T1, OTR501 (Artificial) (UniProt Q9XDM8); details: fluorescence quenching kinetics koff/kon
T1 sequence: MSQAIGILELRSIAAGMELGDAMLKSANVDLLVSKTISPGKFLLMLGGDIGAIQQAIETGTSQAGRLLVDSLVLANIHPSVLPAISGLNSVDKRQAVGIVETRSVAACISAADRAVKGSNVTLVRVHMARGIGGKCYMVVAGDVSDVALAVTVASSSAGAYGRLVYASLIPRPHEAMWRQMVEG

[2] = biological target: T2, OTR503 (Artificial) (UniProt Q9XDM8); details: fluorescence quenching kinetics koff/kon
T2 sequence: T1 sequence with P39R, R163L

[3] = biological target: T3, OTR502 (Artificial) (UniProt Q9XDM8); details: fluorescence quenching kinetics koff/kon
T3 sequence: T1 sequence with P39R, R103W

[4] = biological target: T4, OP (Artificial) (UniProt Q9XDM8); details: fluorescence quenching kinetics koff/kon
T4 sequence: T1 sequence with P39R

[5] = biological target: T5, OP (Artificial, UniProt Q9XDM8 SEQ:1-184); experiment: EMSA; 2:1 ssDNA to capsid; details: tags: C-terminal His6; chain copies: 24 (self-assembled cage)
T5 chain: T1 sequence with P39R

[6] = biological target: T5, OP; experiment: EMSA; PBS, room temp; near complete binding at 0.5 equiv. cage, 1.98 guests per cage by SEC; details: tags: C-terminal His6; chain copies: 24 (self-assembled cage)
[7] = biological target: T6, O3-33 (Artificial, UniProt Q9XDM8 SEQ:1-184, R11T,R39P,R66E,R103W,R130F,R163L); experiment: EMSA; 2 equiv. O3-33; details: tags: C-terminal His6, pET29b(+)-O3-33 (David Baker), PDB 3VCD, chain copies: 24 (self-assembled cage)
T6 sequence: T1 sequence with R11T, R66E, R103W, R130F, R163L

[8] = biological target: T5, OP; experiment: EMSA; PBS, room temp; near complete binding at 0.5 equiv. cage, 1.97 guests per cage by SEC; details: tags: C-terminal His6; chain copies: 24 (self-assembled cage); siRNA duplex with 2-nt 3' DNA overhangs
[9] = biological target: T7, OP-NoHis6 (Artificial, UniProt Q9XDM8 SEQ:1-188); experiment: EMSA; 1:1 molar ratio; siRNA encapsulation also by SEC; details: tags: no His6 (GS C-terminus); chain copies: 24 (self-assembled cage, inferred); siRNA duplex with 2-nt 3' DNA overhangs
T7 chain: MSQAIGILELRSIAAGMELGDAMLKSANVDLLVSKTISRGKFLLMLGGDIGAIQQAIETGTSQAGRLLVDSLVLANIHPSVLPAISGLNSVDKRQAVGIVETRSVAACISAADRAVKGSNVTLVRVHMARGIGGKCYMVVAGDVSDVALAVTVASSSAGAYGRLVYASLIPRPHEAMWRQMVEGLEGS

[10] = biological target: T5, OP; experiment: EMSA; 1:1 complex in PBS; released over 6 h by 26 uM tRNA at 37 C; details: tags: C-terminal His6; chain copies: 24 (self-assembled cage); label: Atto488 5'
[11] = biological target: T8, OTR501 (Artificial, UniProt Q9XDM8 SEQ:1-184); experiment: fluorescence quenching kinetics koff/kon, PBS, room temp; details: tags: C-terminal His6; chain copies: 24 (inferred); label: Atto488 5'
T8 chain: T1 sequence

[12] = biological target: T9, OTR402 (Artificial, UniProt Q9XDM8 SEQ:1-184); experiment: as above; details: tags: C-terminal His6; chain copies: 24 (inferred); label: Atto488 5'
T9 chain: T1 sequence with R130F

[13] = biological target: T10, OTR401 (Artificial, UniProt Q9XDM8 SEQ:1-184); experiment: as above; details: tags: C-terminal His6; chain copies: 24 (inferred); label: Atto488 5'
T10 chain: T1 sequence with P39R, R66E, R163L

[14] = biological target: T11, OTR302 (Artificial, UniProt Q9XDM8 SEQ:1-184); experiment: as above; details: tags: C-terminal His tag; chain copies: 24 (inferred); label: Atto488 5'
T11 chain: T1 sequence with P39R, R66E, R103W, R163L

[15] = biological target: T12, OTR503 (Artificial, UniProt Q9XDM8 SEQ:1-184); experiment: as above; details: tags: C-terminal His6; chain copies: 24 (inferred); label: Atto488 5'
T12 chain: T1 sequence with P39R, R163L

[16] = biological target: T13, OTR301 (Artificial, UniProt Q9XDM8 SEQ:1-184); experiment: as above; details: tags: C-terminal His6; chain copies: 24 (inferred); label: Atto488 5'
T13 chain: T1 sequence with R11T, R66E

[17] = biological target: T14, OTR502 (Artificial, UniProt Q9XDM8 SEQ:1-184); experiment: as above; details: tags: C-terminal His6; chain copies: 24 (inferred); label: Atto488 5'
T14 chain: T1 sequence with P39R, R103W

[18] = biological target: T5, OP; experiment: fluorescence quenching kinetics koff/kon, PBS, room temp; p321 gives (2.4±0.3)e-10; details: tags: C-terminal His6; chain copies: 24 (self-assembled cage); label: Atto488 5'
[19] = biological target: T15, OTR101 (Artificial, UniProt Q9XDM8 SEQ:1-184); experiment: EMSA; also no binding by fluorescence quenching; details: tags: C-terminal His6; chain copies: 24 (inferred); label: Atto488 5'
T15 chain: T1 sequence with R11T, P39R, R66E, R103W, R130F, R163L

[20] = biological target: T16, OTR203 (Artificial, UniProt Q9XDM8 SEQ:1-184); experiment: EMSA; also no binding by fluorescence quenching; details: tags: C-terminal His6; chain copies: 24 (inferred); label: Atto488 5'
T16 chain: T1 sequence with P39R, R66E, R103W, R130F, R163L

[21] = biological target: T17, OTR202 (Artificial, UniProt Q9XDM8 SEQ:1-184); experiment: EMSA; also no binding by fluorescence quenching; details: tags: C-terminal His6; chain copies: 24 (inferred); label: Atto488 5'
T17 chain: T1 sequence with R66E, R130F, R163L

[22] = biological target: T18, OTR201 (Artificial, UniProt Q9XDM8 SEQ:1-184); experiment: EMSA; also no binding by fluorescence quenching; details: tags: C-terminal His6; chain copies: 24 (inferred); label: Atto488 5'
T18 chain: T1 sequence with R11T, P39R, R66E, R103W, R163L

[23] = biological target: T6, O3-33; experiment: EMSA; PBS, room temp; also no binding by fluorescence quenching; details: tags: C-terminal His6; pET29b(+)-O3-33 (David Baker), PDB 3VCD; chain copies: 24 (self-assembled cage); label: Atto488 5'

hpDNA (Atto488-hairpin DNA)
Kd [1]: 0.39 nM
Kd [2]: 0.184 nM
Kd [3]: 0.684 nM
Kd [4]: 1.21 nM

GCGATTCAGCAGGCGATTGAAACC (ssDNA) [ssDNA5]
binding result [5]: binds

GGTGATGCGATGCTGAAAAGCGC (ssDNA) [ssDNA4]
binding result [5]: binds

CCACGCTATTCAGACCGCTAATCG (ssDNA) [ssDNA8]
binding result [5]: binds

B1: dsDNA (GFP-g/GFP-p) (dsDNA)
DNA 1: GAACTTCAGGGTCAGCTTGGG
DNA 2: CAAGCTGACCCTGAAGTTCTT
binding result [6]: binds
binding result [7]: no binding

B2: dsRNA (GFP-siRNA-g/GFP-siRNA-p) (dsRNA)
RNA 1: GAACUUCAGGGUCAGCUUGGG
RNA 2: CAAGCUGACCCUGAAGUUCUU
modifications: last two 3' nucleotides deoxy on each strand
binding result [8]: binds
binding result [9]: binds
binding result ([7]; siRNA duplex with 2-nt 3' DNA overhangs): no binding

B3: Atto488-dsDNA (A488-DNA/A488-DNA') (dsDNA)
DNA 1: TTAATTAAAGACTTCAAGCGG
DNA 2: GCTTGAAGTCTTTAATTAATT
binding result [10]: binds

TTAATTAAAGACTTCAAGCGG (ssDNA) [Atto488-ssDNA (A488-DNA)]
Kd [11]: 0.13 nM
Kd [12]: 0.248 nM
Kd [13]: 16.1 nM
Kd [14]: 8.59 nM
Kd [15]: 0.609 nM
Kd [16]: 2.12 nM
Kd [17]: 0.289 nM
Kd [18]: 0.242 nM
binding result [19]: no binding
binding result [20]: no binding
binding result [21]: no binding
binding result [22]: no binding
binding result [23]: no binding

CGATTAGCGGTCTGAATAGCGTGG (ssDNA) [ssDNA6]
binding result [5]: binds

CGTGGCGAGCAGCAGCGC (ssDNA) [ssDNA1]
binding result [5]: binds

GAAGGAGATATACATATGAGCCAGGC (ssDNA) [ssDNA9]
binding result [5]: binds

GTGCTCGAGACCTTCCACCATC (ssDNA) [ssDNA3]
binding result [5]: binds

GGTTTCAATCGCCTGCTGAATCGC (ssDNA) [ssDNA7]
binding result [5]: binds

CCTGGTGCGTGTGCACATGG (ssDNA) [ssDNA2]
binding result [5]: binds
